In patent US20150037312A1 (University of Washington, published 2015) one finds Kd data, which are given here for one molecule.

This assay has as its target T1, Rituximab (human IgG1), biotinylated (human).
T1 construct: Whole IgG; In the first screen it was oligomerized with streptavidin-phycoerythrin; in SPR it was captured on a streptavidin chip; also called Rituxan; IgG1 Rituxan
Briefly: titration of biotinylated Rituxan on yeast displaying the clone; pH 8 implied.

Protocol: We then determined the Kd of exemplary isolated clones for IgG at different pHs. Measurements were taken via titrations of biotinylated Rituxan (Rituximab) using yeast surface display as discussed in the materials and methods sections.
Yeast cells (EBY100) containing plasmid encoding the designs, were grown overnight at 30° C. in SDCAA medium. For induction, they were sub-cultured into SGCAA to achieve an O.D. of 1, and grown at 22° C. for 16-20 h. Cells were washed once with PBS containing 0.5% BSA (PBS-BSA), before adding 700 nM biotinylated IgG (Rituximab) into a total volume of 50 μl of the same buffer. […] Cells were washed once with ice cold PBS-BSA immediately before measuring their fluorescence via an Accuri C6 flow cytometer, data was analyzed using the FlowJo 7.6.1 and 8.8.7 software.

B1: FcB6.1 (designed binder)
chain: PEEALIVVDMQRDFMPGGALPVPEGDKIIPKVNEYIRKFKEKGALIVATRDWHPENHISFRERGGPWPRHCVQNTPGAEFVVDLPEDAVIISKATEPDKEAYSGFEGTDLAKILRGNGVKRVYICGVATEYCVSRTAVDALKHGFEVYLLRDAVKGIKPTFEQQSFFYMSLKGIKIVQF
notes: Clone from the pH 8 selection of the focused library; also called Fc24.47
One may read the Kd as the constant that tells how readily two partners part at equilibrium. A lower Kd goes with a tighter complex. As to B1, the Kd is ~2 nM.
